Target: other cell components, including other HLA class I alleles, of the B-LCL lines

Substance “FL-labeled HLA-A*0301 reference peptide KVFPC(FL)ALINK” has a relative peptide-binding percentage of less than 20%.

Reference: patent publication US20070025968A1, “Methods for selecting and producing T cell peptide epitopes and vaccines incorporating said selected epitopes” (priority 1996, published 2007)
